The target in experiment [1] is von Willebrand factor-binding protein (recombinant vWbp) (S. aureus). Nature of the experiment: AFM single-molecule force spectroscopy; vWF-modified tips probing vWbp-modified gold supports (NHS/EDC coupling); PBS; 10 µm x 10 µm areas.
The target of experiment [2] is clumping factor A (ClfA wild type) on S. aureus ClfA+ cells (S. aureus) (UniProt Q53653). Nature of the experiment: AFM single-molecule force spectroscopy; vWbp-modified tips probing ClfA+ cells; minimum contact time (~100 ms); PBS.
Experiment [3] shares this target. The experiment in a line: AFM single-molecule force spectroscopy; vWbp-modified tips probing ClfA+ cells; contact time 500 ms before retraction; PBS.

Turning to “von Willebrand factor (human plasma vWF) (from UniProt P04275 764-2813) (natural protein)”, in experiment [1], the binding frequency is 24% and the rupture force was 136 pN.
Turning to “von Willebrand factor-binding protein (recombinant vWbp) (natural protein)”, the binding frequency in experiment [2] came to 3%. Besides, in experiment [3], the binding frequency stood at 11% and the rupture force came to 446 pN.

(Values after publication PMC8041789.)
